Reference: a protein production outcome set (Wang et al. 2014)

Experiment: label from the status in PepcDB records

Sequence | protein production
MKGLKALILVILVLGLVVGSVAAAPEKKVEQVRNVEKNYGLLTPGLFRKIQKLNPNEEISTVIVFENHREKEIAVRVLELMGAKVRYVYHIIPAIAADLKVRDLLVISGLTGGKAKLSGVRFIQEDYKVTVSAELEGLDESAAQVMATYVWNLGYDGSGITIGIIDTGIDASHPDLQGKVIGWVDFVNGRSYPYDDHGHGTHVASIAAGTGAASNGKYKGMAPGAKLAGIKVLGADGSGSISTIIKGVEWAVDNKDKYGIKVINLSLGSSQSSDGTDALSQAVNAAWDAGLVVVVAAGNSGPNKYTIGSPAAASKVITVGAVDKYDVITSFSSRGPTADGRLKPEVVAPGNWIIAARASGTSMGQPINDYYTAAPGTSMATPHVAGIAALLLQAHPSWTPDKVKTALIETADIVKPDEIADIAYGAGRVNAYKAINYDNYAKLVFTGYVANKGSQTHQFVISGASFVTATLYWDNANSDLDLYLYDPNGNQVDYSYTAYYGFEKVGYYNPTDGTWTIKVVSYSGSANYQVDVVSDGSLSQPGSSPSPQPEPTVDAKTFQGSVHYYYDRSDTFTMTVNSGATKITGDLVFDTSYHDLDLYLYDPNQKLVDRSESSNSYEHVEYLNPAPGTWYFLVYAYYTYGWAYYELTAKVYYG | failed
LRRGHLKLQRDGQIIGHTPEEWEQIFREVWPEYEIEPNPLPGYAPFDIGMWLTVEAPAYAVWIDPEDGSEYWAG | failed
EAQRELTEMEARTRLTTEMMPAHIAHVGRDLRYTYSNRRLSQVIPGRPSDILGLTGREALGEGLFARIRPCLLRALEGEASVLEFSDEDSGSRIRAAFTPDRTGDGPINGVYILSMDVT | failed
MRTPRRAPEPVQVVKQRRDATLRALVDGVPYIQFLGIEFERRGDELTGILPFDQKLIGNPLLPAIHGGVTAAFLEVTAIITLSWTYLWEDMESGAIDAKGLASGGMPRLPKTIDISTDYLRSGLPRDAYARARIVRSGRRYASVHVEAWQDNRDRLFAQATGHFLMPDRRDS | failed
MESGKREQVELMFNNISPKYDLLNRVLSLGIDKIWRKQALNLLKQDKPAHILDVATGTADLAIEAATRLKPTSVVGIDIAEDMLQIGRGKIAKKNLDKIIRLEKGDSEKINFPDNTFDAVIVSFGVRNFEHLEIGLAEIHRVLKPAGSIMVLEFSKPQNAPFKQVYQFYFKNILPTVGKLISKDSAAYTYLPDSVNAFPDGKAFCSILEKTGFTIKHYKPYTFGVCTAYVGKLEHHHHHH | failed
MTNDKPFVDLRQYDQSWFDRGRSAWYILLWWLVQAIAFPLTPHFSSNIRCWILRLFGARIGKGVVVRPTARFTFPWKVTIGDYSWVGDDVVFYSLDEIHIGQHCVISQKSYLCTGSHDIQDPTFRLKVAGITIGNGAWVATDCFIAPGVQIGANAVIGARSSVFTSMPTGQVCWGSPCRPQHPRLKE | failed
LADVKHAQSQALFKEHMLETIFNAIPDLFFLMEVDGMIVDYHTGDQKNLYVAPHQFIGKRMTDLLPQEVVSKFQTHVDKILQQEGMITFEYELTMPHGLVHFEARMSYLPEYNQIVLIIRDIS | failed
MSVEPTSVDPSPDKSAPANASGRADASARPSTGESARPSGGETPEVLRPHAEVTFAAELAALAAQDDRPRPVRWRLSPWAVATYLLGGTLPDGTVITPKYVGPRRIVEVAVTTLATDRALLLLGVPGTAKTWVSEHLAAAVSGDSTLLVQGTAGTPEEAIRYGWNYAQLLAHGPSRDALVPSPVMRAMADGMTARVEELTRVPADVQDTLITILSEKTLPIPELGQEVQAVRGFNLIATANDRDRGVNELSSALRRRFNTVVLPLPESADAEVDIVSRRVDQIGRSLDLPAVPDGVDEIRRVVTVFRELRDGVTTDGRTKLKSPSGTLSTAEAISVVTNGLALAAHFGDGVLRASDVAAGILGAVVRDPAADRVIWQEYLEAVVRERDGWMDFYRACREVSALEHHHHHH | not failed
MPPMPVPIRILSVLLLVAMSASATAAPKKAPPASPPSSAGASSLEPVLAGEFALQAGQLDDAARAYLDAAKAEAGDAGLAERAARISMLANDDPRAIEALALWRARAPSSMSMRSTEASLALRRNDLRTARRDLLGLLKEPDPRGWRFALIALANGGREPEASADVLEDLVKAGAIPNQIEAWQEFGRLALRMERPALAKRIVDEVVRRFPEEPRVALLHATQLQQEGKNDEALALLKNIEPQAVKDSELRGALAFAYDAMGQTEAAARVLSTGPQDTQTYGLRASMLAKEKDRSSLEALYAELKSNATKPDPDRRLLLGKIAEFLKRYDEAVEWYRGVPGGPQLSEARLRAASALYELGRKPEALAEARALQGDASADDDARRDAYVLEAELHQRADDAPGELDAFERGLAAYPDDSALLYARGLAWERRDDVPRAEADLRKILVTEPENVAALNALGYTLADRTTRYKEALALIDRARTADPDNPAIVDSYGWVLYRMGRTKEALVQLRRAWALVKDPEIAAHVGEVLWVSGKQDEARRYFDEARRLDPDNRALQRAVEKFGL | failed
MKVLETATQVLEWTAHDTQLLVVAALGIALIVVLIAKLKLHPFLALVLGSAFVGLASGVELGKVITNFEDGVGGVLKEVGLLIALGAMLGKLLADSGGANRVVDTLLAKASGNKLVWMITLVAVIIGLPMFFEIGLVLLLPVIVLVTQRSKMKLMRIAIPALAGLSVLHGLVPPHPGPLIAISAVKAELGTTLGLGILVAIPTVIICGPLFSRLAARWVPVDAPAVAGGIDTQHAADLSEVKRQPSFLVTLLTIIFPVVLMLLKALGGIIWPNPETAPAIRIFFDFVGQPLVAMTLAVLLAIVTFGYAVGFTGSRITAKLGESLGPIAAILLIVGAGGGFKQTLIGAGVGDAVKKWAEGANMSVLVLGFIVAVALRLATGSATVATVTAAGIVAPLASSLSPTHAALLALAIGAGSLFLSHVNDAGFWLVKELFGLTVGQTFKTWSVMETLISVVGFGFVMLLSLVL | failed
MSESIVTKIISIVQERQNMDDGAPVKTRDIADAAGLSIYQVRLYLEQLHDVGVLEKVNAGKGVPGLWRLLLEHHHHHH | not failed
MLFLVKEIYLQHLIQFFYVGFGIFLLYLGGNLLLKSSVGIATYLKVPTLLIGVTIVSFSTSAPELFTSLVAAFKGKNEIVVSNVIGSNIINMLLALPLAGFFLKIKADFKRLKLSFMFLFLLMFLLLLLSFDFRSYSFFVTPYNRFSSFSILILFLSYLLLFYKEEKEYASLENSFQEGASNLNQSFNFIFFNLLSFAISMYFLYLGSKLLVDGALYIANNVFNVSEKLIGIILVAFGTSVPELVVSLFAIIRKESDIAFGNIIGSNIFNIGFILASSSFFRPILLQDIYILDFSIMVFITLVLFLVVKFKGVFGRGISLIFLLLYFLYNLMLFNFY | failed
MLKLTATKQTSQQRSLKMNTLTKLLAATMTLSAQAMAATPLTLDVYNADGNSFHVNATVVYGETEAMVVDTGFTKADALRIGAKVLDSGKTLKTIFISQADPDYYFGAEVLKQMFPQAEVIATPGVKAKIEQKLQGKLDFWAPKMGANAPVKPVLPTAYQGKTLEIDGQTIEIRGTEGELKHRPYLWIPANAAILGNVAVYGNVHLWMADAQTDSERKAWAEQLDEMAALKPKVVIPGHMTPGTAMDSSAITFSQKYLADFAKAKASSKNSAQLIEKMSKIYPDAGLPMALEIGAKVHTGEMKW | failed
SLPIASTATQMGSNKTRIFARQPAKAPPPLAWLSRPRDPRATAIAAAGQQSSRRVSKRELESHGSATDAWTAIHGVVYDITAYFRFHPGGAEILFIEAAGKDSTAVFDEMHPWVNVAWLLKDYRIGLYAPESEDDGGDDDDDDRTMTSPE | not failed
MRAFYSTTEEISALFAKQQEQLKTMQRTLEDEDNCDNTSLDIDLNPINRSPNRANTQGDKRATSHLNFAARASSSTSGQRSTRNEVVDTSCEDADATQKHDCEIMSQEGQNTQEAEYPSSDKVAKGGFGSDIEGIGTAPTSGTDPVGTEQVNETQSPGNDYERNDHLRKSIILAGDTMQIDCETQVHESVQIEGAVLLLRNPNDRRDTQDIEGVGTIGTSDLLASEVAGSWANSTNPSVHGENETERSREDEESQTQKIKEVTIVQDSAGQIGESQTKPTSPGVLVTNKDDAERGVINEPVGITDQGKIKHGTRSDSETESCSDSDDDHEKEKHNPVSDSDTEGSDMNDDKGSLSSDPDTERSHEVDGDQKKQVDTMDEDDKAT | failed
APSQGATANAETQTTIPLGDTSQNALDWPGVYEGVLPCASCEGIQTTLTLQADNSFELKSIYLGKDESIFKVAGKFDWDSNGSKITLSDGSKYLVGENQLLMLDTEGNRITGGLAEHYILKKKGM | not failed
MWNIATAAATLLVAFAATRAYAADIGYLAPPGVAANEFPSPQRPVARIVSPRRASEEHRDALNEAGQIARVLELKPGMTVGDIGAGSGYHTVRLSYLVAPAGSVVAQDVTRDYLIELARRTKLLKLTNVQFALGEPHDPRLPASSLDAAILVHMYHEIAQPYAFLYNLAPALKQGARVGIVDLELPTSKHGTPIELLRCELTAVGYREVATYKLEGDGGYLAVFSPPEVAGRKSPRDIVACRDPAGTR | failed
MLFIFLTIAALGLSFWAQFKVKSNFEKYSKVEASSGRTGAETARRILDINGLYDVPVEPVRGTLTDHYDPTRRVVRLSEPVYYGRSISAISVASHEVGHALQHQESYGALVLRHKIFPVVNFASGVAPLLFLGGMLLGSLNLIGLGIILFSAAVFFQLITLPVEFNASSRAKQIIVSEGFIRNNEENGVNKVLSAAALTYVAAALVSLFELLRFVMIFLNGRDEN | failed
DCLLPIVAAPMAGGPTTVALAQAVSGVGGFPFLAGGYKSVEALATEIAVLRASGGNFGVNLFVPSPDMVDAEAFRIYAAKLQSEALPYGLRLDPLPVMGDDDGWPDKLALLLNDPVPVVSFTFGLPAVRDIAALRCAGSRVLASVTLPAEAQAAMEAGVDGLVVQGPDAGGHSATYDPGRPFTPLKTVSLVRRVCAVSSLPVIAAGGVDGPVMVRALLQAGAAAVAIGTLLLRTKESGATQVHKDALANPAYTETVITHAFTGRPARTLRNGFVNRYHASAPLGYPAIHHLTRPLRQAAASAGDADVLHLWAGTGYRQAMDGSAVDVIQ | failed
MAVTHRTRRPLRAANKTTNAASLGATCSRQQRARLVHCVGRRTNCLAPALCSPRFTAIPRWSSNAMSMSLADARYLFNRILGLIHRSMASMRTRGWRATWQRIRVHTQAPPVALGTPLWLPQPAPFAAFALPHSAAPRVSVVIPVYNHIAHTLACLRSLAAHPPLVDVEIIVVDDGSSDATAEQLPQVAGLHYHLRASNGGFIAACNDGIALARGDFVVLLNNDTIPQPGWLDRLIDTFAQHPSAGLIGAQLVYPDGRLQESGGVVFGDGSAWSYGRFESSDDPRYAYVRAMDYCSGAAIALPRTLLQTLGGLDRRYMPAYYEDTDLAFAVRAAGYQVLVQPASVVVHDEGTSNGTDTRTGVKAYQVRNQNVFAEKWQQALKAQLPVGTVPGPALLHRGQRQVLILDECVPQPDRDSGSLRQFNLIRLLREEGAHVVFVPTRREHAGRHTQALQQLGAEVWYAPFLEGVGSWLRTHGARFAVVLLVRHHVAHACLPLLKQYAPQARTLFDTVDLHYLRERRGAEVAGDANLLHGAERTRLRELEIMAATDVTLLVSAAEQAQLRTDAPHIRTALLSNLHDVAGSGHSFAQRRDLVFVGGFRHPPNVDAVQWFISAIFPQVRAQLPDVVFHCIGADLPDALKLLADECTGVQLHGHVPDLVPFMDNARIAVAPLRFGAGVKGKINLSMAHGQPVVGTTCAVEGMHLRDGEDVCVADDANAFAAAIVRLYQDAALWQRLADNGLRNVAEYFSLDAARATVRALFIAE | failed
MTQMKIFVIGAHGQIGKKIVSKLVAQGDQVYAGIRQPEQAEAFEDAGAQPVQFNLMAQPEDLALAFNGMDAIVFAAGSGGQTGYDMTLMIDLDGAVKSMVAAKIAGVKRYVIISAEFTPDRSRWPRALQPYYVAKYYADEWLKNRTQLDYTILQPGTLINDAGTGKVTVNPDVGGEITRDDVATFTVQTLHTPATVGKTIALINGDTPISKAVQQA | failed
